Source: patent publication US20160153985A1

How the values were obtained:
[1] = biological target: pure human iC3b (Complement Technology, A115) (human) (UniProt P01024); experiment: sandwich ELISA, capture A209 (Example 5), goat anti-C3-HRP; TABLE 6 well H5, 10% vitreous
[2] = biological target: pure human iC3b (Complement Technology, A115) (human) (UniProt P01024); experiment: sandwich ELISA, capture A209 (Example 5), goat anti-C3-HRP; TABLE 7, iC3b in 30% vitreous
[3] = biological target: pure human iC3b (Complement Technology, A115) (human) (UniProt P01024); experiment: sandwich ELISA, capture A209 (Example 5), goat anti-C3-HRP; TABLE 6 well E4, 20% vitreous
[4] = biological target: pure human iC3b (Complement Technology, A115) (human) (UniProt P01024); experiment: sandwich ELISA, capture A209 (Example 5), goat anti-C3-HRP; TABLE 6 well D4, 30% vitreous
[5] = biological target: pure human iC3b (Complement Technology, A115) (human) (UniProt P01024); experiment: sandwich ELISA, capture A209 (Example 5), goat anti-C3-HRP; TABLE 6 well B4, blocker
[6] = biological target: pure human iC3b (Complement Technology, A115) (human) (UniProt P01024); experiment: sandwich ELISA, capture A209 (Example 5), goat anti-C3-HRP; TABLE 6 well A2, blocker
[7] = biological target: pure human iC3b (Complement Technology, A115) (human) (UniProt P01024); experiment: sandwich ELISA, capture A209 (Example 5), goat anti-C3-HRP; TABLE 6 well H9, 10% vitreous
[8] = biological target: pure human iC3b (Complement Technology, A115) (human) (UniProt P01024); experiment: sandwich ELISA, capture A209 (Example 5), goat anti-C3-HRP; TABLE 6 well F2, 20% vitreous
[9] = biological target: pure human iC3b (Complement Technology, A115) (human) (UniProt P01024); experiment: sandwich ELISA, capture A209 (Example 5), goat anti-C3-HRP; TABLE 6 well D3, 30% vitreous
[10] = biological target: pure human iC3b (Complement Technology, A115) (human) (UniProt P01024); experiment: sandwich ELISA, capture A209 (Example 5), goat anti-C3-HRP; TABLE 6 well D8, 30% vitreous
[11] = biological target: pure human iC3b (Complement Technology, A115) (human) (UniProt P01024); experiment: sandwich ELISA of Example 5, iC3b concentration labeled 0.0125 in 20% human vitreous, mean of duplicates less background
[12] = biological target: pure human iC3b (Complement Technology, A115) (human) (UniProt P01024); experiment: sandwich ELISA, capture A209 (Example 5), goat anti-C3-HRP; TABLE 6 well F9, 20% vitreous
[13] = biological target: pure human iC3b (Complement Technology, A115) (human) (UniProt P01024); experiment: sandwich ELISA, capture A209 (Example 5), goat anti-C3-HRP; TABLE 7, iC3b in 20% vitreous
[14] = biological target: pure human iC3b (Complement Technology, A115) (human) (UniProt P01024); experiment: sandwich ELISA, capture A209 (Example 5), goat anti-C3-HRP; TABLE 6 well H3, 10% vitreous
[15] = biological target: pure human iC3b (Complement Technology, A115) (human) (UniProt P01024); experiment: sandwich ELISA, capture A209 (Example 5), goat anti-C3-HRP; TABLE 6 well D6, 30% vitreous
[16] = biological target: pure human iC3b (Complement Technology, A115) (human) (UniProt P01024); experiment: sandwich ELISA, capture A209 (Example 5), goat anti-C3-HRP; TABLE 6 well G5, 10% vitreous
[17] = biological target: pure human iC3b (Complement Technology, A115) (human) (UniProt P01024); experiment: sandwich ELISA, capture A209 (Example 5), goat anti-C3-HRP; TABLE 6 well G8, 10% vitreous
[18] = biological target: pure human iC3b (Complement Technology, A115) (human) (UniProt P01024); experiment: sandwich ELISA, capture A209 (Example 5), goat anti-C3-HRP; TABLE 6 well B9, blocker

Sequence of UniProt P01024 (P01024 23-667 limits assumed, chain 1 of 3): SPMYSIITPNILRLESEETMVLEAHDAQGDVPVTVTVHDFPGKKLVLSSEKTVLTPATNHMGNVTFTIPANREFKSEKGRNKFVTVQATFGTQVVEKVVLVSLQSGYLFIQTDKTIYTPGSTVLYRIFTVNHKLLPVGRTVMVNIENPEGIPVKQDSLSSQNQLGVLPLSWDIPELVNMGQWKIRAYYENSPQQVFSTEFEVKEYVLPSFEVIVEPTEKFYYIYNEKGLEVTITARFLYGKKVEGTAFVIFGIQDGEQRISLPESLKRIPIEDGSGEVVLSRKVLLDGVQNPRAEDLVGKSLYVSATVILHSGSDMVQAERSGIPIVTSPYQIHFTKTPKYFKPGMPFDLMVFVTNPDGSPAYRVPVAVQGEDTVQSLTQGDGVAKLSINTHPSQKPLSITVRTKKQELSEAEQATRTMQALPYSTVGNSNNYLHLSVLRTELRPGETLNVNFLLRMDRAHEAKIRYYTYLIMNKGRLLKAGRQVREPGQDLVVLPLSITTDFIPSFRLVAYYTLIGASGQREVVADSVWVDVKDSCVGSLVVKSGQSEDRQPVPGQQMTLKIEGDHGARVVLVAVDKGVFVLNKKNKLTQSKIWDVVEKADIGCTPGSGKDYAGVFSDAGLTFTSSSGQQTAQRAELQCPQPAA
Sequence of UniProt P01024 (P01024 749-1303 limits assumed, chain 2 of 3): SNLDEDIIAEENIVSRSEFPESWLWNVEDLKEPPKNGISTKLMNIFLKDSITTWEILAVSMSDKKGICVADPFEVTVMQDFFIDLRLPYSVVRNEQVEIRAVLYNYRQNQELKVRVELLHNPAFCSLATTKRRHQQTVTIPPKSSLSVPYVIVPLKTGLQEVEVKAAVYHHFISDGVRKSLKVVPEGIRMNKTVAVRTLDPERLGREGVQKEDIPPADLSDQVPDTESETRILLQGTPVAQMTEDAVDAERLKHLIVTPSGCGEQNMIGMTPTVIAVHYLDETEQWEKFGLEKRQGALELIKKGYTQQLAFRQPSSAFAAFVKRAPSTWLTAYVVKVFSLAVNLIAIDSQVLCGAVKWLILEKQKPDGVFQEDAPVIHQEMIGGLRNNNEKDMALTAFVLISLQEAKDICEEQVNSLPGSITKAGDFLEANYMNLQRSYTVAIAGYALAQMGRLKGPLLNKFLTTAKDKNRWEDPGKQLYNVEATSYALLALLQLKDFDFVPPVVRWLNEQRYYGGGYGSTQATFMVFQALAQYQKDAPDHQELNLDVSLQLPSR
Sequence of UniProt P01024 (P01024 1321-1663 limits assumed, chain 3 of 3): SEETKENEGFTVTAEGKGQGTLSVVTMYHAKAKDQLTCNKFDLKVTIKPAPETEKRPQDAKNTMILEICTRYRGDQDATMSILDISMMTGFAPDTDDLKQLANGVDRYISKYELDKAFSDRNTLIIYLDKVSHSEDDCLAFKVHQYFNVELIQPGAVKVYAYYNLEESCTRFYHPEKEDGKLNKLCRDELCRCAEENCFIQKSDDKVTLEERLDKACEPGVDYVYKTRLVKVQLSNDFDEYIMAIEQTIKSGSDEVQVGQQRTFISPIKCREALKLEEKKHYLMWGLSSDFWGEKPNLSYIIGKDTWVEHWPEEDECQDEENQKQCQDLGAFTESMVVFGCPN

mouse anti-iC3b antibody A209 (Quidel)
raw A450 at iC3b 0.125 ug/ml [1]: 0.3 OD
A450 minus matrix average at iC3b 0.0078 ug/ml [2]: 0.0042 OD
A450 minus matrix average at iC3b 0.016 ug/ml [2]: -0.02 OD
A450 minus matrix average at iC3b 0.031 ug/ml [2]: -0.005 OD
A450 minus matrix average at iC3b 0.063 ug/ml [2]: 0.008 OD
A450 minus matrix average at iC3b 0.125 ug/ml [2]: 0.027 OD
A450 minus matrix average at iC3b 0.25 ug/ml [2]: 0.051 OD
A450 minus matrix average at iC3b 0.5 ug/ml [2]: 0.045 OD
A450 minus matrix average at iC3b 1 ug/ml [2]: 0.087 OD
raw A450 at iC3b 0.25 ug/ml [3]: 0.411 OD
raw A450 at iC3b 0.25 ug/ml [4]: 0.433 OD
raw A450 at iC3b 0.25 ug/ml [5]: 0.167 OD
raw A450 at iC3b 1 ug/ml [6]: 0.371 OD
raw A450 at iC3b 0.0078 ug/ml [7]: 0.207 OD
raw A450 at iC3b 1 ug/ml [8]: 0.527 OD
raw A450 at iC3b 0.5 ug/ml [9]: 0.406 OD
raw A450 at iC3b 0.016 ug/ml [10]: 0.355 OD
net absorbance A450 (matrix only value 0.328 subtracted) [11]: 0.049 A450
raw A450 at iC3b 0.0078 ug/ml [12]: 0.38 OD
A450 minus matrix average at iC3b 0.0078 ug/ml [13]: -0.002 OD
A450 minus matrix average at iC3b 0.016 ug/ml [13]: 0 OD
A450 minus matrix average at iC3b 0.031 ug/ml [13]: 0.012 OD
A450 minus matrix average at iC3b 0.063 ug/ml [13]: 0.03 OD
A450 minus matrix average at iC3b 0.25 ug/ml [13]: 0.099 OD
A450 minus matrix average at iC3b 0.5 ug/ml [13]: 0.122 OD
A450 minus matrix average at iC3b 1 ug/ml [13]: 0.182 OD
raw A450 at iC3b 0.5 ug/ml [14]: 0.316 OD
raw A450 at iC3b 0.063 ug/ml [15]: 0.362 OD
raw A450 at iC3b 0.125 ug/ml [16]: 0.274 OD
raw A450 at iC3b 0.016 ug/ml [17]: 0.227 OD
raw A450 at iC3b 0.0078 ug/ml [18]: 0.032 OD
